Drawing on patent US20240108766A1 (Bayer, published 2024), this text covers EC50 for 1 molecule.

The target of this assay is T1, human LRRC15 expressed on cells (human, UniProt Q8TF66 22-581).
T1 construct: whole, on cells; On HEK293 cells transfected with LRRC15/ZsGreen1 (Retrogenix), on HT29 cells transfected with human LRRC15, and endogenous on Saos-2; also called LRRC15/ZsGreen1 transfected HEK293 cells; HT29-LRRC15
T1 sequence (looked up): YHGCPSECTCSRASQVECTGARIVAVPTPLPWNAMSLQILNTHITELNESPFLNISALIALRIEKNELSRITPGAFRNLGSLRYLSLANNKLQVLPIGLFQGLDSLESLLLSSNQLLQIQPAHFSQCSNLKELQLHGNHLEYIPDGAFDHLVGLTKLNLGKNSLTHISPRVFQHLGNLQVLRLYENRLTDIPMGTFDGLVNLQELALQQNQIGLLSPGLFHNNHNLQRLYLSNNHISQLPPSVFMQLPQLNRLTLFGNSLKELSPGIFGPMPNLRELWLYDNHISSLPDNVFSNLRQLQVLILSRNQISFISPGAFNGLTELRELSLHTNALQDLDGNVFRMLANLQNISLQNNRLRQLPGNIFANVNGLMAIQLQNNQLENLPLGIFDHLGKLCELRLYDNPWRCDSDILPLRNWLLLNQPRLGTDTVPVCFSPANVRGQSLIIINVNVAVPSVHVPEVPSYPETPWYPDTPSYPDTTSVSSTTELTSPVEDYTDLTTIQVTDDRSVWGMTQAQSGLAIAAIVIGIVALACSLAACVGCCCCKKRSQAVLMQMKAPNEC
Briefly: flow cytometry, transfected HEK293; TPP-17078, second of the three values listed 'respectively'.

As usually defined, the EC50 is the concentration that produces a half-maximal response. High values mean lower potency in that assay, low ones higher potency in that assay.

From the text: Plotted is the Median AF647 Fluorescence versus antibody concentration. Background binding of each antibody to the cells (i.e. binding to ZsGreen1-only transfectants) is subtracted from the LRRC15 transfected cells at each antibody dose.
Shown is the median fluorescence of AF647 labeled secondary antibody versus antibody concentration as determined by flow cytometry. Background binding of each antibody to the cells (i.e. binding to ZsGreen1 only transfectants) can be subtracted from the LRRC15 transfected cells for each antibody concentration.

B1: TPP-17078 (antibody, human IgG1, kappa, V domains shown)
VH: EVQLVQSGAEVKKPGASVKVSCKASGYKFSSYWIEWVKQAPGQGLEWIGEILPGSDTTNYNEKFKDRATFTSDTSINTAYMELSRLRSDDTAVYYCARDRGNYRAWFGYWGQGTLVTVSS
VL: DIQMTQSPSSLSASVGDRVTITCRASQSISSYLNWYQQKPGGAPKFLIYYASSLQSGVPSRFSGSGSGTDYTLTISSLQPEDFATYYCQQGFSLPWTFGGGTKVEIKR
notes: also called 438H-M308-H05-hIgGkappa
The molecule B1 came in with an EC50 of 0.15 µg/mL.
